For the assay, the target named is T1, kindlin-2 (KIND2) (UniProt Q8CIB5 1-680).
T1 construct: kindlin-2 (KIND2), recombinant; with the F1 loop and the PH domain (unlike ΔKIND2); source: E. coli Rosetta, purified (IMAC, SEC); not shown: His10-SUMO, N-terminal, cleaved
T1 sequence (looked up): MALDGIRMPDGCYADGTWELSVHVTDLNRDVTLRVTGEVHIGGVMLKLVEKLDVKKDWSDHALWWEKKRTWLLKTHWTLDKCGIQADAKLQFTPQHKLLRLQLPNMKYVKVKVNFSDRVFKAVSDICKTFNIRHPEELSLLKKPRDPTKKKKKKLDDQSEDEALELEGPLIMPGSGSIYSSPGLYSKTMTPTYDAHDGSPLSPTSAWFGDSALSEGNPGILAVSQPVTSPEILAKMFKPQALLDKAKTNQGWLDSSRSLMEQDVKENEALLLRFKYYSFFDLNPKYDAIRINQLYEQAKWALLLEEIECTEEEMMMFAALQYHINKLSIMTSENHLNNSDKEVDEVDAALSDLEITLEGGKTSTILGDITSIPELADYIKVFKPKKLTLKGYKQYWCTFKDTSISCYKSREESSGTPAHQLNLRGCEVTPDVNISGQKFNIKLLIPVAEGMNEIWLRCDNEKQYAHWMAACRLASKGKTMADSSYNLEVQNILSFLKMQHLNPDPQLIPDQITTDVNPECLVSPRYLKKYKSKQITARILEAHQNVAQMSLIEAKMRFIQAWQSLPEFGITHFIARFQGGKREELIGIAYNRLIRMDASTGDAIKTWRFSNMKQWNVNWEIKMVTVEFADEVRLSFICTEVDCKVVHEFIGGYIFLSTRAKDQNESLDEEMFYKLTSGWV
Description: MST; apparent; KIND2 titrated to 488–β3-CT in the presence of 250-450 µM TLN1-F3; MST buffer. The following applies: both partners purified.

Several values for one entry are separate records, joined by “and”; a condition that tells them apart may be missing. Equal entries are not always repeated. No end group written: not given here.

B1: ATTO 488-labeled integrin β3 cytoplasmic tail (488–β3-CT) (peptide, UniProt O54890 741-787, looked up)
peptide: {ATTO 488}-KLLITIHDRKEFAKFEEERARAKWDTANNPLYKEATSTFTNITYRGT
notes: integrin β3 cytoplasmic tail (β3-CT); source: synthetic peptide (MPIB Core Facility)
In the case of B1, the Kd is 119 µM and 121 µM.

The record behind these values is article PMC10716038, “Talin and kindlin use integrin tail allostery and direct binding to activate integrins” (Nature Structural & Molecular Biology, 2023).
